According to PMC6393303:

Key:
[1] = target: wild-type proliferating cell nuclear antigen (PCNA) (yeast) (UniProt P15873)
[2] = target: pcna-6 (DD41,42AA) mutant PCNA (yeast) (UniProt P15873)
[3] = target: wild-type proliferating cell nuclear antigen (PCNA) (yeast) (UniProt P15873); remark: listed apart in the source
[4] = target: wild-type proliferating cell nuclear antigen (PCNA) (yeast) (UniProt P15873); remark: listed apart in the source
[5] = target: pcna-6 (DD41,42AA) mutant PCNA (yeast) (UniProt P15873); remark: listed apart in the source
[6] = target: wild-type proliferating cell nuclear antigen (PCNA) (yeast) (UniProt P15873); remark: listed apart in the source

wild-type proliferating cell nuclear antigen (PCNA) (yeast), sequence (P15873 whole entry): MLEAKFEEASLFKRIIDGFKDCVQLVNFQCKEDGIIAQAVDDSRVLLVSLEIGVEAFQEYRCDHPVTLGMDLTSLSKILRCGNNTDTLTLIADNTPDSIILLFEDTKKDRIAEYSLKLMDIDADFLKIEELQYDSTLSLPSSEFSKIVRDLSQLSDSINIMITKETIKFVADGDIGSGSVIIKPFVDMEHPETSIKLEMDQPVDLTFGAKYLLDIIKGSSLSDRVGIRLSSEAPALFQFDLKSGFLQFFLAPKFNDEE
pcna-6 (DD41,42AA) mutant PCNA (yeast), sequence (P15873 other isoform, or with tags, fused parts or gaps mutant): as the sequence (P15873 whole entry) above, with D41A, D42A counted along it

Row | single-nucleotide extension rate (k fast), quench flow, 76/29 template/primer, 12°C [1] [s⁻¹] | single-nucleotide extension rate (k fast), quench flow, 76/29 template/primer, 12°C [2] [s⁻¹] | nucleotide incorporation rate (rate of primer disappearance, single exponential fit), quench flow, 75/29 template/primer, 300 nM mini-Pol δ-DV, 150 nM PCNA, 75 nM RFC, AMP-CPP, 100 mM NaCl, 30°C [3] [s⁻¹] | peak of the normalized product distribution (nucleotides incorporated) at 10 and 50 ms, single processive cycle with heparin trap [4] [nucleotides] | peak of the normalized product distribution (nucleotides incorporated) at 10 and 50 ms, single processive cycle with heparin trap [5] [nucleotides] | replication of the T20 template by the fastest moving complexes, quench flow, 100 mM NaCl (nucleotides per second) [6] | Substance
1 | 183 | 55 |  |  |  |  | DNA polymerase δ (Pol δ-DV), full-length exonuclease-deficient (D520V) heterotrimer (from UniProt P15436 1-1097; P46957 1-487; P47110 1-350) (complex)
2 |  |  | > 350 | 16 | 7 | 500 | mini-Pol δ-DV (variant DNA polymerase δ heterotrimer, exonuclease-deficient D520V) (from UniProt P15436 82-1097; P46957 1-487; P47110 1-350) (complex)
